*1 amine or outer side, *2 acyl side, *3 side chain or, on linkers, in order; H or OH if unused. Where no end group is shown, it is not given here. Side-chain parts run from the residue outwards. The star is where a group is joined. γGlu = O=C(O)[C@H](CCC(=O)[*:2])N[*:1]; Hydrocinnamoyl = O=C(CCc1ccccc1)*; Palmitoyl = CCCCCCCCCCCCCCCC(=O)*; Hexanoyl = CCCCCC(=O)*; Bz = O=C(c1ccccc1)*

First the molecules themselves.
T1: human VPAC2 receptor (human) (UniProt P41587)
T1 sequence: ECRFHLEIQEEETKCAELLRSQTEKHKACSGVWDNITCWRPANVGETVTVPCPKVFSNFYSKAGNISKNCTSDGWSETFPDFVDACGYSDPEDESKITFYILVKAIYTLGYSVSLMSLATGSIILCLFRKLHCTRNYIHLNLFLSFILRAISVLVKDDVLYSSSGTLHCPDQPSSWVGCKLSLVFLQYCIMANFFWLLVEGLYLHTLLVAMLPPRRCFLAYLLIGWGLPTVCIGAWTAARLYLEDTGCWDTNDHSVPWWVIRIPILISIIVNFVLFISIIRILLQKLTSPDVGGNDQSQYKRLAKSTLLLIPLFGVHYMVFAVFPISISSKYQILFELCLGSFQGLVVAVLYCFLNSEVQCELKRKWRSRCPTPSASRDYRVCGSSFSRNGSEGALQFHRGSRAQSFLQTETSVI

B1: P156 (peptide)
peptide: Hexanoyl-HSDAVFTDNYTRLLLKVAAKKYLQSIKNSRTSPPP-NH2
SMILES: CCCCCC(=O)N[C@@H](Cc1c[nH]cn1)C(=O)N[C@@H](CO)C(=O)N[C@@H](CC(=O)O)C(=O)N[C@@H](C)C(=O)N[C@H](C(=O)N[C@@H](Cc1ccccc1)C(=O)N[C@H](C(=O)N[C@@H](CC(=O)O)C(=O)N[C@@H](CC(N)=O)C(=O)N[C@@H](Cc1ccc(O)cc1)C(=O)N[C@H](C(=O)N[C@@H](CCCNC(=N)N)C(=O)N[C@@H](CC(C)C)C(=O)N[C@@H](CC(C)C)C(=O)N[C@@H](CC(C)C)C(=O)N[C@@H](CCCCN)C(=O)N[C@H](C(=O)N[C@@H](C)C(=O)N[C@@H](C)C(=O)N[C@@H](CCCCN)C(=O)N[C@@H](CCCCN)C(=O)N[C@@H](Cc1ccc(O)cc1)C(=O)N[C@@H](CC(C)C)C(=O)N[C@@H](CCC(N)=O)C(=O)N[C@@H](CO)C(=O)N[C@H](C(=O)N[C@@H](CCCCN)C(=O)N[C@@H](CC(N)=O)C(=O)N[C@@H](CO)C(=O)N[C@@H](CCCNC(=N)N)C(=O)N[C@H](C(=O)N[C@@H](CO)C(=O)N1CCC[C@H]1C(=O)N1CCC[C@H]1C(=O)N1CCC[C@H]1C(N)=O)[C@@H](C)O)[C@@H](C)CC)C(C)C)[C@@H](C)O)[C@@H](C)O)C(C)C
B2: P157 (peptide)
peptide: Hexanoyl-HSDAVFTDQYTRLRKQVAAKKYLQSIKQSRTSPPP-NH2
SMILES: CCCCCC(=O)N[C@@H](Cc1c[nH]cn1)C(=O)N[C@@H](CO)C(=O)N[C@@H](CC(=O)O)C(=O)N[C@@H](C)C(=O)N[C@H](C(=O)N[C@@H](Cc1ccccc1)C(=O)N[C@H](C(=O)N[C@@H](CC(=O)O)C(=O)N[C@@H](CCC(N)=O)C(=O)N[C@@H](Cc1ccc(O)cc1)C(=O)N[C@H](C(=O)N[C@@H](CCCNC(=N)N)C(=O)N[C@@H](CC(C)C)C(=O)N[C@@H](CCCNC(=N)N)C(=O)N[C@@H](CCCCN)C(=O)N[C@@H](CCC(N)=O)C(=O)N[C@H](C(=O)N[C@@H](C)C(=O)N[C@@H](C)C(=O)N[C@@H](CCCCN)C(=O)N[C@@H](CCCCN)C(=O)N[C@@H](Cc1ccc(O)cc1)C(=O)N[C@@H](CC(C)C)C(=O)N[C@@H](CCC(N)=O)C(=O)N[C@@H](CO)C(=O)N[C@H](C(=O)N[C@@H](CCCCN)C(=O)N[C@@H](CCC(N)=O)C(=O)N[C@@H](CO)C(=O)N[C@@H](CCCNC(=N)N)C(=O)N[C@H](C(=O)N[C@@H](CO)C(=O)N1CCC[C@H]1C(=O)N1CCC[C@H]1C(=O)N1CCC[C@H]1C(N)=O)[C@@H](C)O)[C@@H](C)CC)C(C)C)[C@@H](C)O)[C@@H](C)O)C(C)C
B3: P91 (peptide)
peptide: Bz-HSDAVFTDNYTRLRKQVAAKKYLQSIKNSRTSPPP-NH2
SMILES: CC[C@H](C)[C@H](NC(=O)[C@H](CO)NC(=O)[C@H](CCC(N)=O)NC(=O)[C@H](CC(C)C)NC(=O)[C@H](Cc1ccc(O)cc1)NC(=O)[C@H](CCCCN)NC(=O)[C@H](CCCCN)NC(=O)[C@H](C)NC(=O)[C@H](C)NC(=O)[C@@H](NC(=O)[C@H](CCC(N)=O)NC(=O)[C@H](CCCCN)NC(=O)[C@H](CCCNC(=N)N)NC(=O)[C@H](CC(C)C)NC(=O)[C@H](CCCNC(=N)N)NC(=O)[C@@H](NC(=O)[C@H](Cc1ccc(O)cc1)NC(=O)[C@H](CC(N)=O)NC(=O)[C@H](CC(=O)O)NC(=O)[C@@H](NC(=O)[C@H](Cc1ccccc1)NC(=O)[C@@H](NC(=O)[C@H](C)NC(=O)[C@H](CC(=O)O)NC(=O)[C@H](CO)NC(=O)[C@H](Cc1c[nH]cn1)NC(=O)c1ccccc1)C(C)C)[C@@H](C)O)[C@@H](C)O)C(C)C)C(=O)N[C@@H](CCCCN)C(=O)N[C@@H](CC(N)=O)C(=O)N[C@@H](CO)C(=O)N[C@@H](CCCNC(=N)N)C(=O)N[C@H](C(=O)N[C@@H](CO)C(=O)N1CCC[C@H]1C(=O)N1CCC[C@H]1C(=O)N1CCC[C@H]1C(N)=O)[C@@H](C)O
B4: P80 (peptide)
peptide: HSDAVFTDNYTRLRKQVAAKKYLQSIKNSRTSPPPK([γGlu-Palmitoyl])-NH2
modifications: N-terminus assumed
SMILES: CCCCCCCCCCCCCCCC(=O)N[C@@H](CCC(=O)NCCCC[C@H](NC(=O)[C@@H]1CCCN1C(=O)[C@@H]1CCCN1C(=O)[C@@H]1CCCN1C(=O)[C@H](CO)NC(=O)[C@@H](NC(=O)[C@H](CCCNC(=N)N)NC(=O)[C@H](CO)NC(=O)[C@H](CC(N)=O)NC(=O)[C@H](CCCCN)NC(=O)[C@@H](NC(=O)[C@H](CO)NC(=O)[C@H](CCC(N)=O)NC(=O)[C@H](CC(C)C)NC(=O)[C@H](Cc1ccc(O)cc1)NC(=O)[C@H](CCCCN)NC(=O)[C@H](CCCCN)NC(=O)[C@H](C)NC(=O)[C@H](C)NC(=O)[C@@H](NC(=O)[C@H](CCC(N)=O)NC(=O)[C@H](CCCCN)NC(=O)[C@H](CCCNC(=N)N)NC(=O)[C@H](CC(C)C)NC(=O)[C@H](CCCNC(=N)N)NC(=O)[C@@H](NC(=O)[C@H](Cc1ccc(O)cc1)NC(=O)[C@H](CC(N)=O)NC(=O)[C@H](CC(=O)O)NC(=O)[C@@H](NC(=O)[C@H](Cc1ccccc1)NC(=O)[C@@H](NC(=O)[C@H](C)NC(=O)[C@H](CC(=O)O)NC(=O)[C@H](CO)NC(=O)[C@@H](N)Cc1c[nH]cn1)C(C)C)[C@@H](C)O)[C@@H](C)O)C(C)C)[C@@H](C)CC)[C@@H](C)O)C(N)=O)C(=O)O
B5: P178 (peptide)
peptide: Hexanoyl-HSDAVFTDNYTRLRKAAAAKKYLQSIKNSRTSPPP-NH2
SMILES: CCCCCC(=O)N[C@@H](Cc1c[nH]cn1)C(=O)N[C@@H](CO)C(=O)N[C@@H](CC(=O)O)C(=O)N[C@@H](C)C(=O)N[C@H](C(=O)N[C@@H](Cc1ccccc1)C(=O)N[C@H](C(=O)N[C@@H](CC(=O)O)C(=O)N[C@@H](CC(N)=O)C(=O)N[C@@H](Cc1ccc(O)cc1)C(=O)N[C@H](C(=O)N[C@@H](CCCNC(=N)N)C(=O)N[C@@H](CC(C)C)C(=O)N[C@@H](CCCNC(=N)N)C(=O)N[C@@H](CCCCN)C(=O)N[C@@H](C)C(=O)N[C@@H](C)C(=O)N[C@@H](C)C(=O)N[C@@H](C)C(=O)N[C@@H](CCCCN)C(=O)N[C@@H](CCCCN)C(=O)N[C@@H](Cc1ccc(O)cc1)C(=O)N[C@@H](CC(C)C)C(=O)N[C@@H](CCC(N)=O)C(=O)N[C@@H](CO)C(=O)N[C@H](C(=O)N[C@@H](CCCCN)C(=O)N[C@@H](CC(N)=O)C(=O)N[C@@H](CO)C(=O)N[C@@H](CCCNC(=N)N)C(=O)N[C@H](C(=O)N[C@@H](CO)C(=O)N1CCC[C@H]1C(=O)N1CCC[C@H]1C(=O)N1CCC[C@H]1C(N)=O)[C@@H](C)O)[C@@H](C)CC)[C@@H](C)O)[C@@H](C)O)C(C)C
B6: P90 (peptide)
peptide: Hydrocinnamoyl-HSDAVFTDNYTRLRKQVAAKKYLQSIKNSRTSPPP-NH2
SMILES: CC[C@H](C)[C@H](NC(=O)[C@H](CO)NC(=O)[C@H](CCC(N)=O)NC(=O)[C@H](CC(C)C)NC(=O)[C@H](Cc1ccc(O)cc1)NC(=O)[C@H](CCCCN)NC(=O)[C@H](CCCCN)NC(=O)[C@H](C)NC(=O)[C@H](C)NC(=O)[C@@H](NC(=O)[C@H](CCC(N)=O)NC(=O)[C@H](CCCCN)NC(=O)[C@H](CCCNC(=N)N)NC(=O)[C@H](CC(C)C)NC(=O)[C@H](CCCNC(=N)N)NC(=O)[C@@H](NC(=O)[C@H](Cc1ccc(O)cc1)NC(=O)[C@H](CC(N)=O)NC(=O)[C@H](CC(=O)O)NC(=O)[C@@H](NC(=O)[C@H](Cc1ccccc1)NC(=O)[C@@H](NC(=O)[C@H](C)NC(=O)[C@H](CC(=O)O)NC(=O)[C@H](CO)NC(=O)[C@H](Cc1c[nH]cn1)NC(=O)CCc1ccccc1)C(C)C)[C@@H](C)O)[C@@H](C)O)C(C)C)C(=O)N[C@@H](CCCCN)C(=O)N[C@@H](CC(N)=O)C(=O)N[C@@H](CO)C(=O)N[C@@H](CCCNC(=N)N)C(=O)N[C@H](C(=O)N[C@@H](CO)C(=O)N1CCC[C@H]1C(=O)N1CCC[C@H]1C(=O)N1CCC[C@H]1C(N)=O)[C@@H](C)O
B7: P128 (peptide)
peptide: HSDAVFTDNYTRLRKQVAAKKYLQSIKNSRTSPPPK(Trp)-NH2
modifications: N-terminus assumed
SMILES: CC[C@H](C)[C@H](NC(=O)[C@H](CO)NC(=O)[C@H](CCC(N)=O)NC(=O)[C@H](CC(C)C)NC(=O)[C@H](Cc1ccc(O)cc1)NC(=O)[C@H](CCCCN)NC(=O)[C@H](CCCCN)NC(=O)[C@H](C)NC(=O)[C@H](C)NC(=O)[C@@H](NC(=O)[C@H](CCC(N)=O)NC(=O)[C@H](CCCCN)NC(=O)[C@H](CCCNC(=N)N)NC(=O)[C@H](CC(C)C)NC(=O)[C@H](CCCNC(=N)N)NC(=O)[C@@H](NC(=O)[C@H](Cc1ccc(O)cc1)NC(=O)[C@H](CC(N)=O)NC(=O)[C@H](CC(=O)O)NC(=O)[C@@H](NC(=O)[C@H](Cc1ccccc1)NC(=O)[C@@H](NC(=O)[C@H](C)NC(=O)[C@H](CC(=O)O)NC(=O)[C@H](CO)NC(=O)[C@@H](N)Cc1c[nH]cn1)C(C)C)[C@@H](C)O)[C@@H](C)O)C(C)C)C(=O)N[C@@H](CCCCN)C(=O)N[C@@H](CC(N)=O)C(=O)N[C@@H](CO)C(=O)N[C@@H](CCCNC(=N)N)C(=O)N[C@H](C(=O)N[C@@H](CO)C(=O)N1CCC[C@H]1C(=O)N1CCC[C@H]1C(=O)N1CCC[C@H]1C(=O)N[C@@H](CCCCNC(=O)[C@@H](N)Cc1c[nH]c2ccccc12)C(N)=O)[C@@H](C)O

The target of this assay is T1, human VPAC2 receptor (human).
For the molecule B1, the EC50 (nM) for cAMP generation, Alpha Screen came out at 0.29 nM.
The molecule B2 gave an EC50 (nM) for cAMP generation, Alpha Screen of 0.06 nM.
In turn, B3 gave an EC50 (nM) for cAMP generation, Alpha Screen of 1.9 nM and an EC50 (nM) for cAMP generation, DiscoveRx of 0.76 nM.
On the same counts, the results for B4 are 1.82 nM and 2.8 nM.
As for B5, the EC50 (nM) for cAMP generation, Alpha Screen amounted to 0.12 nM.
Regarding B6, the EC50 (nM) for cAMP generation, Alpha Screen is 4.01 nM and the EC50 (nM) for cAMP generation, DiscoveRx was determined as 1.7 nM.
In turn, B7 came in with an EC50 (nM) for cAMP generation, Alpha Screen of 1.78 nM.

The record behind these values is patent US20080096811A1, “[…] VPAC2 RECEPTOR PEPTIDE AGONISTS” (Eli Lilly and Company, published 2008).
